Among the data in patent US20200181261A1 (Bayer, published 2020) are Kd, binding result and EC50 values, retold here.

The term Kd denotes the concentration at which binding is half-saturated. By EC50 is commonly meant the concentration that produces a half-maximal response. Low readings indicate an effect from little substance, high ones a need for much substance.

For assay [1], the target named is T1, Macaca mulatta CEACAM6-Xa-Fc-His (Macaca mulatta).
T1 construct: extracellular (mature form) fused to Factor Xa site, human IgG1 Fc and His tag; the entry is the whole fusion; also called TPP-1306; MM WT
Description: SPR, antibody captured, antigen as analyte. The procedure:
Surface plasmon resonance (SPR) experiments for quantitative binding analyses were performed either using a Biacore T100, Biacore T200 or a Biacore 4000 instrument (GE Healthcare Biacore, Inc.) equipped with Series S Sensor Chips CM5 (GE Healthcare Biacore, Inc.). Binding assays were carried out at 25° C. with assay buffer HBS-EP+(10 mM HEPES pH 7.4, 150 mM NaCl, 3 mM EDTA, 0.05% Surfactant P20). Antibodies were captured with an anti-hIgG capture antibody covalently immobilized to the chip surface via amine coupling chemistry. Reagents for amine coupling (1-ethyl-3-(3-dimethylaminopropyl) carbodiimide hydrochloride (EDC), N-hydroxysuccinimide (NHS), ethanolamine-HCl pH 8.5) were used from the Amine Coupling Kit (GE Healthcare, product code BR-1000-50). Anti-hIgG, anti-mIgG capture antibodies and immobilization buffer (10 mM sodium acetate pH 5.0) were used from the Human Antibody Capture Kit (GE Healthcare, BR-1008-39) and the Mouse Antibody Capture Kit (GE Healthcare, BR-1008-38), respectively. The sensor chip surface was activated with a freshly prepared solution of 0.2 M EDC and 0.05 M NHS passed over the chip surface for 420 s at a flow rate of 10 μl/min, followed by an injection of anti-hIgG or anti-mIgG capture antibody (dissolved to 25 μg/ml in immobilization buffer) for 180 s at a flow rate of […]. Excess of activated groups were blocked with a 1 molar solution of ethanolamine injected at a flow rate of 10 μl/min for 420 s.
CEACAM antigens were used as analyte to determine KD values. Antibodies were captured for 20 s at a flow rate of 10 μl/min prior to each analyte injection.
Obtained sensorgrams were double-referenced, i.e. in-line reference cell correction followed by buffer sample subtraction.
Background: SPR reads the build-up and loss of mass on a sensor chip optically.

The target of assay [2] is T2, Human CEACAM6-Dom2-MacMul-Xa-Fc-His (human, Domain 2 from Macaca mulatta).
T2 construct: domain chimera fused to Xa-Fc-His; also called TPP-1792; DOM2 MM
Description: domain mapping ELISA, antigen coated. As to the method: (§1) For ELISA analysis, the Fc-fused domain chimeras and the single domain 1 were coated on Nunc MaxiSorb plates and blocked with SmartBlock solution. After incubation with an IgG-concentration series (1 nM-1000 nM) for 1 h, plates were washed with PBS/T. Analysis of the bound IgGs to the CEACAM6 domain constructs was achieved over detection via Anti-Human IgG (Fab specific)-Peroxidase antibody (A0293, Sigma). Fluorescence detection was performed with AmplexRed (A12222, Invitrogen) following standard protocols.

Assay [3] concerns the target T3, Human CEACAM6-Domain 1-His (expressed in E. coli), wild-type (human).
T3 construct: entry includes the His tag; also called hDOM1
T3 chain: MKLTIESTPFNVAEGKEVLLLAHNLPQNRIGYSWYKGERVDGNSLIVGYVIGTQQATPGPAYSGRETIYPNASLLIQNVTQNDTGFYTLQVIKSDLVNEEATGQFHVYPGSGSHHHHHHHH
Description: domain mapping ELISA, antigen coated. As to the method:
as §1

For assay [4], the target named is T4, Macaca fascicularis CEACAM6, extracellular (mature form), obtained by Factor Xa cleavage of TPP-2443 (Macaca fascicularis).
T4 construct: used biotinylated in some assays; also called APP-319; Cynomolgus CEACAM6
T4 chain: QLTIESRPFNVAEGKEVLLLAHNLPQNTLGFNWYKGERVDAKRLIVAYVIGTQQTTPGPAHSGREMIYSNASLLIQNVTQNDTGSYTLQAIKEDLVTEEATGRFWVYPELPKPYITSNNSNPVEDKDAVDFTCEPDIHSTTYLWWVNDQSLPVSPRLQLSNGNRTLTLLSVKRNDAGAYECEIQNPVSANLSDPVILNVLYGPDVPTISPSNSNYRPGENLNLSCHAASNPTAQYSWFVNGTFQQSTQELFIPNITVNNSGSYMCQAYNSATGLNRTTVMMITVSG
The experiment in a line: ELISA, antigen coated. The procedure: (§2) ELISAs were used to characterize the binding of antibodies to various CEACAM paralogs and orthologs. Black 384-well plates were coated with […] of various CEACAM protein preparations at 2 μg/ml in coating buffer (Candor) for 1 h at 37° C. After one wash with PBS/0.05% Tween-20, wells were blocked with 100% Smart Block (Candor) for one hour at 37° C. After three washes with PBS/0.05% Tween-20, dilution series of the antibodies in PBS/0.05% Tween-20/10% Smart Block ranging from 2 μg/ml to 2 ng/ml were added and the plates were incubated for 1 h at room temperature. After three washes with PBS/0.05% Tween-20, an appropriate secondary antibody was added. For detection of proteins with a human Fc such as TPP-1173, an anti-human IgG HRP (Sigma A0170) was used at 1:10.000 dilution. For detection of proteins with a mouse Fc such as TPP-1744 an anti-mouse IgG HRP (ThermoScientific 31432) was used at 1:10.000 dilution. PBS/0.05% Tween-20/10% Smart Block was used as dilution buffer. The plates were incubated for 1 hour at room temperature. After three washes, the plates were developed with Amplex Red (Life Technologies) and fluorescence was read at an emission wavelength of 590 nm. GraphPad Prism 6.0 software was used to calculate EC₅₀ values using four-parameter non-linear curve fit. […]

In assay [5] the target is T5, human CEACAM5, extracellular (mature form), R&D Systems 4128-CM (human, UniProt P06731 35-685).
T5 construct: used biotinylated in some assays; also called TPP-1438; hC5
T5 sequence: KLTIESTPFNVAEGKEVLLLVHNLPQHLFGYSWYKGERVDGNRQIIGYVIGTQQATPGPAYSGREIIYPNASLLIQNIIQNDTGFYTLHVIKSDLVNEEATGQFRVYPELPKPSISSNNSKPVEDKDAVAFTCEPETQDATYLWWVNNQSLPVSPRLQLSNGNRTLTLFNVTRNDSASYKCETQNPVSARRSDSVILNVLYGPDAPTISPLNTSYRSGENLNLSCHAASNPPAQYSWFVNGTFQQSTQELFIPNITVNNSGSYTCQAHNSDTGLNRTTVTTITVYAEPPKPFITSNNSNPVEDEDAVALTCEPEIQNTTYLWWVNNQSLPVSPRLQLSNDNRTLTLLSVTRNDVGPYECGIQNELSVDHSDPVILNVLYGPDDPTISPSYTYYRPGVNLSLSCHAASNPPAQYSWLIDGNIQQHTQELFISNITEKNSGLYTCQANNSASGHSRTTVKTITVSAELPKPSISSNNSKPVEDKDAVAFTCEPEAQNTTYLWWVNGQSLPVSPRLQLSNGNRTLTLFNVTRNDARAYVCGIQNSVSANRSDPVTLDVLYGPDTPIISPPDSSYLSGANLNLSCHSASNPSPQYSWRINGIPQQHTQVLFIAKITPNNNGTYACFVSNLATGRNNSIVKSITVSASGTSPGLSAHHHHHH
Description: ELISA, antigen coated. As to the method: as §2
In general terms: An ELISA detects its analyte on a solid surface through an enzyme-linked reagent.

B1: Neo201 (human IgG1) (antibody, V domains shown)
VH: QVQLVQSGAEVKKPGASVKVSCKASGYTFTDYAMHWVRQAPGQRLEWMGLISTYSGDTKYNQNFQGRVTMTVDKSASTAYMELSSLRSEDTAVYYCARGDYSGSRYWFAYWGQGTLVTVSS
VL: DIQMTQSPSSLSASVGDRVTITCQASENIYGALNWYQRKPGKSPKLLIYGASNLATGMPSRFSGSGSGTDYTFTISSLQPEDIATYYCQQVLSSPYTFGGGTKLEIKR
notes: based on US20130189268; also called TPP-1173; Neo201-hIgG1
Turning to B1, the Kd in assay [1] amounted to 23 nM. Also, the figures for the binding result in assay [2] and in assay [3] were “binds” and “no binding (tested: 1000 nM IgG)”, respectively. Besides, the EC50 in assay [4] is 1.35 nM; in assay [5], 0.09 nM.
